From PMC9321335, “Palmitic Acid-Conjugated Radiopharmaceutical for Integrin αvβ3-Targeted Radionuclide Therapy” (Pharmaceutics, 2022)

Assays:
in vivo = experiment: in vivo; set-up: species or system C57BL/6 mice; conditions: C57BL/6, mouse, 37 MBq, total radioactivity
Method: SPECT/CT imaging was performed using a small animal SPECT/CT imaging system (Mediso Inc., Budapest, Hungary). Each mouse bearing MC38 tumors was injected with a radiotracer at a radioactivity of 37 MBq/1 mCi. The mice were imaged at 1, 4, 12, 24, and 72 h after injection of ^177Lu-Palm-3PRGD2 (37 MBq, 2.7 nmol), and the mice in the blocking study were imaged at 1 h p.i. […] Pinhole SPECT images (peak, 56.1, 112.9, and 208.4 keV; 20% width; frame time, 25 s) were acquired, and CT images were subsequently acquired (50 kV; 0.67 mA; rotation, 210°; exposure time, 300 ms). The raw data were reconstructed in a whole-body region. The SPECT and CT images were then fused using Nucline v 2.01 (Mediso Inc., Budapest, Hungary). The maximum intensity projection (MIP) was determined for whole-body imaging from the posterior view.

[1] = set-up: species or system KM mice; conditions: mouse, in vivo, iv
Method: Female KM mice were randomly divided into three groups (n = 5). […] Blood samples obtained from the canthus vein were collected at different time points post injection (p.i.), weighed, and evaluated using a γ-counter. The results are presented as the percentage injected activity per gram (%IA/g). Nonlinear regression (curve fit) followed by two phase decay was performed using GraphPad Prism version 9.0.0 for Windows, GraphPad Software, San Diego, CA, USA, www.graphpad.com (accessed on 22 May 2022). And then the half-lives values were calculated and determined.

## CCCCCCCCCCCCCCCC(=O)N[C@@H](CCC(=O)NCCCC[C@H](NC(=O)CN1CCN(CC(=O)O)CCN(CC(=O)O)CCN(CC(=O)O)CC1)C(=O)NCCOCCOCCOCCOCCC(=O)N[C@@H](CCC(=O)NCCOCCOCCOCCOCCC(=O)NCCCC[C@@H]1NC(=O)[C@@H](Cc2ccccc2)NC(=O)[C@H](CC(=O)O)NC(=O)CNC(=O)[C@H](CCCNC(=N)N)NC1=O)C(=O)NCCOCCOCCOCCOCCC(=O)NCCCC[C@@H]1NC(=O)[C@@H](Cc2ccccc2)NC(=O)[C@H](CC(=O)O)NC(=O)CNC(=O)[C@H](CCCNC(=N)N)NC1=O)C(=O)O [^177Lu-Palm-3PRGD2, [^177Lu]Lu-DOTA-Palm-3PRGD2, metal not drawn]
In vivo
  tissue uptake per volume at 1 h: 15 ± 0.13 %ID/mL
[1]
  Half-Life (T1/2α): 4.49 min
  Half-Life (T1/2β): 73.42 min
